Km, kcat and kcat/Km data for 9 substances are collected here from paper PMC5065237, “Investigation into the Mode of Phosphate Activation in the 4-Hydroxy-4-Methyl-2-Oxoglutarate/4-Carboxy-4-Hydroxy-2-Oxoadipate Aldolase from Pseudomonas putida F1” (PLoS ONE, 2016).

Assay in all cases: purified protein
Assay type in all cases: biochemical, Pseudomonas putida

Series [1] has as its system T1, CC(O)(CC(=O)C(=O)O)C(=O)O.
T1 construct: recombinant from pT7-7, expressed in E. coli; chelex-treated apo-enzyme reconstituted with MgCl2
The conditions noted are these: without Pi, 1 mM MgCl2, 0.1 M HEPES pH 8.0, 25 °C, racemic substrate.

Series [2] concerns T2, O=C(O)CC(=O)C(=O)O.
T2 construct: recombinant from pT7-7, expressed in E. coli; chelex-treated apo-enzyme reconstituted with MgCl2
The settings on record: without Pi, 1 mM MgCl2, 0.1 M HEPES pH 8.0, 25 °C.

Series [3] deals with T3, O=C(O)CC(O)(CC(=O)C(=O)O)C(=O)O.
T3 construct: recombinant from pT7-7, expressed in E. coli; chelex-treated apo-enzyme reconstituted with MgCl2
The settings on record: without Pi, 1 mM MgCl2, 0.1 M HEPES pH 8.0, 25 °C, racemic substrate.

“HMG/CHA aldolase (Pseudomonas putida F1)”: the Km in series [1] stood at 188 ± 11 µM; in series [2], 298 ± 30 µM; in series [3], 15.0 ± 1.3 µM. Also, the kcat is 15.6 ± 0.54 s⁻¹ in series [1], 1.86 ± 0.18 s⁻¹ in series [2] and 13.4 ± 0.31 s⁻¹ in series [3]. Also, the results for the kcat/Km in series [1], in series [2] and in series [3] were 83000 ± 5600 M⁻¹ s⁻¹, 6240 ± 870 M⁻¹ s⁻¹ and 893000 ± 80000 M⁻¹ s⁻¹, respectively.

For “HMG/CHA aldolase (Pseudomonas putida F1; G144V)”, in series [1], the Km stood at 1390 ± 160 µM, the kcat came to 0.215 ± 0.015 s⁻¹ and the kcat/Km turned out to be 155 ± 21 M⁻¹ s⁻¹.

As for “HMG/CHA aldolase (Pseudomonas putida F1; H75A)”, in series [1], the Km was 389 ± 22 µM, the kcat is 22.3 ± 0.75 s⁻¹ and the kcat/Km worked out at 57300 ± 3800 M⁻¹ s⁻¹.

For the substance “HMG/CHA aldolase (Pseudomonas putida F1; K147A)”, in series [1], the Km came to 2010 ± 210 µM, the kcat amounted to 0.014 ± 0.00039 s⁻¹ and the kcat/Km came out at 6.97 ± 0.75 M⁻¹ s⁻¹.

On to “HMG/CHA aldolase (Pseudomonas putida F1; N71A)”, for which, in series [1], the Km was found to be 796 ± 70 µM, the kcat stood at 0.014 ± 0.0011 s⁻¹ and the kcat/Km came out at 17.6 ± 2.1 M⁻¹ s⁻¹.

As for “HMG/CHA aldolase (Pseudomonas putida F1; R40A)”, in series [1], the Km worked out at 304 ± 27 µM, the kcat is 6.7 ± 0.14 s⁻¹ and the kcat/Km was 22000 ± 2100 M⁻¹ s⁻¹.

“HMG/CHA aldolase (Pseudomonas putida F1; R123K)”: in series [1], the Km was found to be 3210 ± 210 µM, the catalytic constant (kcat) is 0.086 ± 0.0046 s⁻¹ and the specificity constant (kcat/Km) was found to be 26.7 ± 2.3 M⁻¹ s⁻¹.

In the case of “HMG/CHA aldolase (Pseudomonas putida F1; R195A)”, in series [1], the Km was determined as 1370 ± 58 µM, the kcat was 6.72 ± 0.19 s⁻¹ and the kcat/Km is 4910 ± 250 M⁻¹ s⁻¹.

For the substance “HMG/CHA aldolase (Pseudomonas putida F1; T145A)”, in series [1], the Km came to 1080 ± 88 µM, the kcat worked out at 0.889 ± 0.057 s⁻¹ and the kcat/Km came to 823 ± 85 M⁻¹ s⁻¹.
